The results in this text go back to article PMC5443158.

The subject of this data set is CodY (Streptococcus pneumoniae D39). The data set is described as follows: EMSA. To be noted: lowest CodY concentration giving binding, 10 nM DNA, 5X binding buffer: 20 mM Tris-HCl pH 7.5, 30 mM KCl, 1 mM DTT, 1 mM EDTA, 10% glycerol, room temperature, 30 min (Fig 4A,B) or 20 min (Fig 4C), 20 ul, 8% …. On the technique in general: In EMSA bound probe runs differently from free probe, usually more slowly.

With tpxD promoter probe (FAM), the binding by setting is: (2 mM H2O2) 400 nM; (no H2O2, no BCAA) 600 nM.
